Test results as given in patent US20200317768A1 (published 2020).

T1: human FcγRIIb extracellular domain, C-terminal His-tag (human, UniProt P31994 43-217)
T1 construct: also called human FcgRIIb; FcgRIIb
T1 sequence: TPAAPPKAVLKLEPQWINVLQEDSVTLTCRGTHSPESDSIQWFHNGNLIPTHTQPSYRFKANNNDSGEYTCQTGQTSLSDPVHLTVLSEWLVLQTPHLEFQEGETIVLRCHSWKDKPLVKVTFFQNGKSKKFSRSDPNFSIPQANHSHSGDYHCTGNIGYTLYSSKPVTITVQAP


target: T1, human FcγRIIb extracellular domain, …; assay: SPR (Biacore); KD of SG1 / KD of variant;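 also: relative to parent M103205H795-SG1 carrying the SG1 human heavy chain constant region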

KD fold (SG1 = 1) [fold]	Binder
11.8	M103205H795-MY197/M103202L889-SK1 (antibody, human IgG1, kappa, Substitutions introduced into M103205H795-SG1; expressed with M103202L889-SK1 as light chain) heavy: QVTLKESGPVLVKPTETLTLTCTVSGIDLSHDDISWVRQAPGKGLEWVGIISYAGSTYYASWAKGRLTISKDTSKNQVVLTMTNMDPVDTATYYCARGVPAYSHGGDLWGQGTLVTVSSASTKGPSVFPLAPSSKSTSGGTAALGCLVKDYFPEPVTVSWNSGALTSGVHTFPAVLQSSGLYSLSSVVTVPSSSLGTQTYICNVNHKPSNTKVDKKVEPKSCDKTHTCPPCPAPELLNGPSVFLFPPKPKDTLMISRTPEVTCVVVDVSDEDPEVKFNWYVDGVEVHNAKTKPREEQYNSTYRVVSVLTVLHQDWLNGKEYKCKVSNKALPKPIEKTISKAKGQPREPQVYTLPPSREEMTKNQVSLTCLVKGFYPSDIAVEWESNGQPENNYKTTPMVLDSDGSFFLYSKLTVDKSRWQQGNVFSCSVMHEALHNHYTQKSLSLSP light: DIVMTQSPATLSLSPGERATLSCTSSQSVYHANWLSWFQQKPGQPPKLLIYWASTLAYGVPSRFSGSGSGTDFTLTISSLQPEDAATYYCAGGYGGGRYAFGQGTKVEIKRTVAAPSVFIFPPSDEQLKSGTASVVCLLNNFYPREAKVQWKVDNALQSGNSQESVTEQDSKDSTYSLSSTLTLSKADYEKHKVYACEVTHQGLSSPVTKSFNRGEC
5.5	M103205H795-MY147/M103202L889-SK1 (antibody, human IgG1, kappa, Substitutions introduced into M103205H795-SG1; expressed with M103202L889-SK1 as light chain) heavy: QVTLKESGPVLVKPTETLTLTCTVSGIDLSHDDISWVRQAPGKGLEWVGIISYAGSTYYASWAKGRLTISKDTSKNQVVLTMTNMDPVDTATYYCARGVPAYSHGGDLWGQGTLVTVSSASTKGPSVFPLAPSSKSTSGGTAALGCLVKDYFPEPVTVSWNSGALTSGVHTFPAVLQSSGLYSLSSVVTVPSSSLGTQTYICNVNHKPSNTKVDKKVEPKSCDKTHTCPPCPAPELWNGPSVFLFPPKPKDTLMISRTPEVTCVVVDVSEEDPEVKFNWYVDGVEVHNAKTKPREEQYNSTYRVVSVLTVLHQDWLNGKEYKCKVSNKALPAPIEKTISKAKGQPREPQVYTLPPSREEMTKNQVSLTCLVKGFYPSDIAVEWESNGQPENNYKTTPMVLDSDGSFFLYSKLTVDKSRWQQGNVFSCSVMHEALHNHYTQKSLSLSP light: DIVMTQSPATLSLSPGERATLSCTSSQSVYHANWLSWFQQKPGQPPKLLIYWASTLAYGVPSRFSGSGSGTDFTLTISSLQPEDAATYYCAGGYGGGRYAFGQGTKVEIKRTVAAPSVFIFPPSDEQLKSGTASVVCLLNNFYPREAKVQWKVDNALQSGNSQESVTEQDSKDSTYSLSSTLTLSKADYEKHKVYACEVTHQGLSSPVTKSFNRGEC

The next lines start with the binder.

Binder	KD fold (SG1 = 1) [fold]
M103205H795-MY117/M103202L889-SK1 (antibody, human IgG1, kappa, Substitutions introduced into M103205H795-SG1; expressed with M103202L889-SK1 as light chain) heavy: QVTLKESGPVLVKPTETLTLTCTVSGIDLSHDDISWVRQAPGKGLEWVGIISYAGSTYYASWAKGRLTISKDTSKNQVVLTMTNMDPVDTATYYCARGVPAYSHGGDLWGQGTLVTVSSASTKGPSVFPLAPSSKSTSGGTAALGCLVKDYFPEPVTVSWNSGALTSGVHTFPAVLQSSGLYSLSSVVTVPSSSLGTQTYICNVNHKPSNTKVDKKVEPKSCDKTHTCPPCPAPEWLNGPSVFLFPPKPKDTLMISRTPEVTCVVVDVAEEDPEVKFNWYVDGVEVHNAKTKPREEQYNSTYRVVSVLTVLHQDWLNGKEYKCKVSNKALPAPIEKTISKAKGQPREPQVYTLPPSREEMTKNQVSLTCLVKGFYPSDIAVEWESNGQPENNYKTTPMVLDSDGSFFLYSKLTVDKSRWQQGNVFSCSVMHEALHNHYTQKSLSLSP light: DIVMTQSPATLSLSPGERATLSCTSSQSVYHANWLSWFQQKPGQPPKLLIYWASTLAYGVPSRFSGSGSGTDFTLTISSLQPEDAATYYCAGGYGGGRYAFGQGTKVEIKRTVAAPSVFIFPPSDEQLKSGTASVVCLLNNFYPREAKVQWKVDNALQSGNSQESVTEQDSKDSTYSLSSTLTLSKADYEKHKVYACEVTHQGLSSPVTKSFNRGEC	7.7
M103205H795-MY141/M103202L889-SK1 (antibody, human IgG1, kappa, Substitutions introduced into M103205H795-SG1; expressed with M103202L889-SK1 as light chain) heavy: QVTLKESGPVLVKPTETLTLTCTVSGIDLSHDDISWVRQAPGKGLEWVGIISYAGSTYYASWAKGRLTISKDTSKNQVVLTMTNMDPVDTATYYCARGVPAYSHGGDLWGQGTLVTVSSASTKGPSVFPLAPSSKSTSGGTAALGCLVKDYFPEPVTVSWNSGALTSGVHTFPAVLQSSGLYSLSSVVTVPSSSLGTQTYICNVNHKPSNTKVDKKVEPKSCDKTHTCPPCPAPELLNGPSVFLFPPKPKDTLMISRTPEVTCVVVDVAHEDPEVKFNWYVDGVEVHNAKTKPREEQYNSTYRVVSVLTVLHQDWLNGKEYKCKVSNKALPAPIEKTISKAKGQPREPQVYTLPPSREEMTKNQVSLTCLVKGFYPSDIAVEWESNGQPENNYKTTPMVLDSDGSFFLYSKLTVDKSRWQQGNVFSCSVMHEALHNHYTQKSLSLSP light: DIVMTQSPATLSLSPGERATLSCTSSQSVYHANWLSWFQQKPGQPPKLLIYWASTLAYGVPSRFSGSGSGTDFTLTISSLQPEDAATYYCAGGYGGGRYAFGQGTKVEIKRTVAAPSVFIFPPSDEQLKSGTASVVCLLNNFYPREAKVQWKVDNALQSGNSQESVTEQDSKDSTYSLSSTLTLSKADYEKHKVYACEVTHQGLSSPVTKSFNRGEC	4.2
